Measured values: the supplement of paper PMC10567573

B1: PTPRD (parent)
chain: PVVSMDLDPQPITDEEEGLIWVVG
B2: C9orf9 (parent)
chain: TKHKCRQLTKASLKPRGCSKPPWR

Variants of: B1
Assay: protein stability index of a GFP-peptide fusion (GPS, HEK-293T) (PSI 1-6); higher = more stable
Settings: c terminus: a fixed tail appended
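Also: lentivirally expressed fusions sorted by FACS into six bins by GFP to DsRed ratio, PSI derived from sequencing read proportions per bin multiplied by bin number.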

Variant	protein stability index
S4E	5.11
S4C	3.56
S4N	4.01
S4T	3.73
S4I	2.28
S4L	2.89
S4M	2.75
L7Y	4.27
L7T	2.63
L7N	4.74
L7F	4.79
L7V	4.01
L7C	3.54
L7E	4.89
I20G	4.92
I20H	4.32
M5S	3.77
M5R	4.31
M5L	3.97
M5F	3.48
M5V	3.92
M5G	5.16
M5Q	4.62
M5N	4.7

Variant	protein stability index
P11Y	2.67
P11Q	4.39
P11N	3.36
P11K	3.68
P11F	3.25
P11T	3.77
P11H	3.8
V23G	5.27
V23S	5.01
V23D	5.36
V23H	4.93
V23L	3.06
V23R	5.03
V23A	4.67
V23T	4.93
V23P	4.97
W21Q	5.18
W21C	4.69
W21H	5.47
W21L	3.33
G18Y	2.27
G18N	4.42
G18P	3.19
G18D	4.59

Variant	protein stability index
G18K	3.72
G18C	2.63
V22N	4.37
V22W	3.79
V22F	2.54
V22Q	4.63
D14S	4.05
D14L	2.06
D14I	4.15
D14G	3.87
D14A	2.58
D14M	2.36
D14N	3.9
D14F	2.14
E15K	3.16
E15S	2.9
E15G	3.21
P1N	3.58
P1Q	3.81
P1V	1.86
P1W	2.17
P1T	2.22
P1H	3.02
L19E	4.54

Variant	protein stability index
L19F	3.65
L19V	3.56
L19N	4.57
L19A	4.6
D8C	2.61
D8H	2.1
D8L	3.31
D8W	2.52
D8E	3.92
D8V	3.25
P9Y	3.41
P9F	1.93
P9C	3.67
P9I	3.23
P9Q	4.05
P9V	3.19
P9K	3.71
P9D	4.52
G24C	1.85
G24L	1.51
G24T	3.21
G24K	4.06
G24V	1.7
G24D	4.45

Variant	protein stability index
G24I	1.54
G24Y	3.09
G24Q	3.55
D6S	3.4
D6P	3.48
D6E	4.24
D6A	4.22
D6K	2.99
D6W	1.94
D6I	2.56
V2K	2.77
V2C	4.26
V2S	4.51
V2Y	3.56
V2T	4.09
V2P	4.05
V2M	4.2
V2L	3.93
V2G	4.23
T13S	3.13
T13V	3.58
T13I	2.71
T13D	4.13
T13P	3.36

Variant	protein stability index
E17L	2.56
E17S	2.88
E17A	2.26
E17I	1.8
E17Q	4.18
E17M	1.69
I12S	3.64
I12R	4.74
I12V	4.28
I12K	4.84
E16F	1.07
E16P	2.79
V3D	3.91
V3Q	3.87
V3A	3.17
V3N	3.92
V3E	4.81
V3G	3.98
V3F	3.86
Q10C	3.08
Q10M	3.88
Q10R	3.89

Variants of: B2
Assay: as above
Settings: c terminus: a fixed tail appended

Variant	protein stability index
H3S	3.02
H3F	2.27
H3T	2.83
H3C	1.44
H3R	3.11
H3P	3.03
H3E	2.77
H3Y	3.08
H3W	2.42
H3K	3.09
H3D	3.12
T1W	1.77
T1Y	2.09
T1R	3.56
T1G	3.17
T1E	2.52
T1A	3.08
T1S	2.96
T1C	2.45
T1L	2.44
T1D	3.22
T1M	2.64
T1K	2.62
T1I	2.59

Variant	protein stability index
T1P	3.06
T1F	3.6
T1Q	2.46
T1N	3.18
K4M	2.15
K4G	2.83
K4N	2.78
K4Q	2.88
K4S	2.9
K4L	1.72
K4V	2.25
K4C	1.91
K4A	2.94
K4P	2.21
K4I	1.99
K4T	2.67
K4R	2.45
K4F	1.82
K4Y	1.95
K4H	2.66
K10I	2.73
K10W	2.46
K10F	2.58
K10M	2.38

Variant	protein stability index
K10N	2.8
K10P	2.71
K10Y	2.53
K10L	2.21
K10Q	2.77
K10E	1.74
K10T	3.42
K10D	1.94
K10R	3.59
K10S	3.07
K10H	2.11
Q7C	2.17
Q7R	2.56
Q7T	2.06
Q7V	1.97
Q7F	1.63
Q7S	3.27
Q7G	2.75
Q7K	3.27
Q7D	4.68
Q7N	3.14
Q7I	2.08
Q7E	2.73
Q7Y	2.72

Variant	protein stability index
Q7L	1.29
Q7H	2.5
Q7P	3.14
Q7A	2.96
Q7M	2.14
K2D	3.81
K2P	4.64
K2I	1.64
K2G	3.88
K2N	2.78
K2T	2.27
K2A	1.36
K2Y	2.1
K2S	4.18
K2C	2.68
K2M	2.16
K2W	2.57
C5F	2.4
C5N	2.15
C5R	3.76
C5L	2.2
C5T	2.24
C5Y	2.88
C5D	3.56

Variant	protein stability index
C5A	3.24
C5Q	3.33
C5S	2.87
C5H	2.44
C5V	2.88
C5G	2.21
C5K	3.65
C5M	1.84
C5E	3.12
C5W	2.17
R6Y	3.72
R6T	2.4
R6P	1.91
R6L	2.56
R6Q	3.1
R6H	3.25
R6N	2.78
R6S	2.59
R6M	2.19
R6I	1.86
R6V	2.84
R6K	2.76
R6E	3.17
R6W	2.46

Variant	protein stability index
R6C	2.6
R6G	3.22
R6D	3.03
L8I	2.37
L8D	3.07
L8R	3.54
L8E	3.62
L8C	2.89
L8N	3.04
L8M	2.62
L8P	4.04
L8K	3.02
L8T	3.22
L8A	3.21
L8G	2.58
L8S	3.12
L8Y	2.35
L8F	3.24
L8W	2.43
L8H	2.98
S12T	2.6
S12A	2.98
S12M	1.54
S12L	2.19

Variant	protein stability index
S12Y	2.06
S12D	2.82
S12K	3.81
S12R	3.37
S12Q	3.25
S12N	3.19
S12P	3.28
S12E	2.57
S12I	2.87
S12H	2.35
S12W	2.09
S12F	2.28
S12C	2.41
S12G	3.76
L13A	3.23
T9G	2.56
T9I	2.22
T9L	2.17
T9A	2.2
T9P	3.18
T9Y	3.38
T9W	2.25
T9S	2.27
T9M	2.48

Variant	protein stability index
T9H	2.47
T9F	4.48
T9N	3.87
T9K	3.57
T9V	2.92
T9Q	3.14
A11N	2.95
A11W	2.27
A11Y	2.48
A11D	2.81
A11M	1.94
A11F	1.67
A11H	3.04
A11K	2.85
A11I	2.29
A11G	3.46
A11V	2.57
A11Q	2.16
A11P	3.89
A11L	2.59
A11T	2.92
A11S	2.78
A11E	2.27
A11C	2.23
